According to PMC7336386, “Methylation of MdMYB1 locus mediated by RdDM pathway regulates anthocyanin biosynthesis in apple”:

T1: MdAGO4-1 without PAZ domain (Malus domestica? (apple), UniProt A0A498JG28 46-274+435-911, internal_change)
T1 sequence: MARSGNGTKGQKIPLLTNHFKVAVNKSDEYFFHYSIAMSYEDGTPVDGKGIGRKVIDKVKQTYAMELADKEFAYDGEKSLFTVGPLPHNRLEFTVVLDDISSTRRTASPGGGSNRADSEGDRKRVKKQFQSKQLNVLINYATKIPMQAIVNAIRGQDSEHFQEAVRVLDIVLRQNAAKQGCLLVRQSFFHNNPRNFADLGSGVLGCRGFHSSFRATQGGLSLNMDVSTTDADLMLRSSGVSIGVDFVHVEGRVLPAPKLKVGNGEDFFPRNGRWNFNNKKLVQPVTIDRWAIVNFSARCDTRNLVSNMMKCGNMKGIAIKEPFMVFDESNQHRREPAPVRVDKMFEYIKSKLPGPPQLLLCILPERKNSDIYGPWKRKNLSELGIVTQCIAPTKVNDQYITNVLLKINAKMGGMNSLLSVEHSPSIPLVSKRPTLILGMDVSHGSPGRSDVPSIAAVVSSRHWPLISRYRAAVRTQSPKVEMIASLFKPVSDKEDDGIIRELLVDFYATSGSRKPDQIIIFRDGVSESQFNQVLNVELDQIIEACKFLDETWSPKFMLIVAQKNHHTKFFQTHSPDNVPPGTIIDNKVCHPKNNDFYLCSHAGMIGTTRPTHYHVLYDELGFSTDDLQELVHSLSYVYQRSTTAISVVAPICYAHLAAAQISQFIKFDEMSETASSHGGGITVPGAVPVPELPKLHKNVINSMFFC

T2: MdAGO4-1 (Malus domestica? (apple), UniProt A0A498JG28 46-911)
T2 sequence: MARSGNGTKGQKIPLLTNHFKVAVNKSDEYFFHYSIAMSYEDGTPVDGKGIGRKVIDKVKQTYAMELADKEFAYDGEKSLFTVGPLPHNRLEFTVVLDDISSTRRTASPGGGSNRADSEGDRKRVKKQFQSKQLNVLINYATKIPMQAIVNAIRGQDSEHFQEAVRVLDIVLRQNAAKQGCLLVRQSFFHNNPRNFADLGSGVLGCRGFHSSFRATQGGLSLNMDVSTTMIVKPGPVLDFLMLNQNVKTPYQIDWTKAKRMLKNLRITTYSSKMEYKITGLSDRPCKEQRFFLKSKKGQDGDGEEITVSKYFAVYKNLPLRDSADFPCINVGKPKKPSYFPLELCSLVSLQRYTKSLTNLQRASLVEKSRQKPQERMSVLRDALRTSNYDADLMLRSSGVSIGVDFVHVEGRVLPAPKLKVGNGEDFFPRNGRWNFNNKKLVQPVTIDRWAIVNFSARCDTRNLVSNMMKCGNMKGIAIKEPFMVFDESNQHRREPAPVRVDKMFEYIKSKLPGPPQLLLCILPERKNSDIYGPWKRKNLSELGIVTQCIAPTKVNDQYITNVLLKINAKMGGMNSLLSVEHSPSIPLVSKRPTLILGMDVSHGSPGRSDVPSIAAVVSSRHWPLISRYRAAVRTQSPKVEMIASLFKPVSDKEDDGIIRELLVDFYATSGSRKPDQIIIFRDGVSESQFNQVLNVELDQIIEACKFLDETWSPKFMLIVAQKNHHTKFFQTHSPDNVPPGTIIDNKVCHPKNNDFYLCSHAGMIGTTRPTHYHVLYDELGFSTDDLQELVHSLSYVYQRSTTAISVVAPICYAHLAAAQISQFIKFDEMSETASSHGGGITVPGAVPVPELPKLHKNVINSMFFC

B1: MdMYB1 probe2 (dsDNA)
DNA 1: TGTCAGTGTTTGCTTCTGTGGATATCAGACATGCACGTCACTGGCCTT
DNA 2: AAGGCCAGTGACGTGCATGTCTGATATCCACAGAAGCAAACACTGACA
B2: 2-m2 (dsDNA)
DNA 1: TGTCAGTGTTGATATCAGACATGCACGTCACTGGCCTT
DNA 2: AAGGCCAGTGACGTGCATGTCTGATATCAACACTGACA
B3: 2-m1 (probe2 without m1 region) (dsDNA)
DNA 1: TGCTTCTGTGGATATCAGACATGCACGTCACTGGCCTT
DNA 2: AAGGCCAGTGACGTGCATGTCTGATATCCACAGAAGCA
B4: 2-m3 (m3 region … not intact) (dsDNA)
DNA 1: TGTCAGTGTTTGCTTCTGTGATGCACGTCACTGGCCTT
DNA 2: AAGGCCAGTGACGTGCATCACAGAAGCAAACACTGACA
B5: 2-m4 (dsDNA)
DNA 1: TGTCAGTGTTTGCTTCTGTGGATATCAGACCTGGCCTT
DNA 2: AAGGCCAGGTCTGATATCCACAGAAGCAAACACTGACA
B6: 2-m5 (dsDNA)
DNA 1: TGTCAGTGTTTGCTTCTGTGGATATCAGACATGCACGTCA
DNA 2: TGACGTGCATGTCTGATATCCACAGAAGCAAACACTGACA
B7: MdGST probe (dsDNA)
DNA 1: TTTTTTATTAAATAAAAAAAGATATCATGCGACAAACATTTATTAAATTG
DNA 2: CAATTTAATAAATGTTTGTCGCATGATATCTTTTTTTATTTAATAAAAAA
B8: MdFLS probe (dsDNA)
DNA 1: GTAAAGGGAGTGTGACCATAATATCAGATACACAAACGTCCAAAGCCC
DNA 2: GGGCTTTGGACGTTTGTGTATCTGATATTATGGTCACACTCCCTTTAC

Molecular target: T1, MdAGO4-1 without PAZ domain
Test: EMSA; LightShift Chemiluminescent EMSA Kit (Thermo); buffer, salt, pH and temperature not stated
Conditions: protein: recombinant

Row | Binder | binding result
1 | B1 | binds

Molecular target: T2, MdAGO4-1
Test: as above
Conditions: protein: recombinant; tags: His (pET32a)

Row | Binder | binding result
2 | B2 | binds
3 | B3 | binds
4 | B4 | no binding
5 | B5 | binds
6 | B6 | binds
7 | B1 | binds

Same assay, conditions: protein: recombinant; tags: His (pET32a); blunt

Row | Binder | binding result
8 | B7 | no binding
9 | B8 | binds
